Test: soluble on expression in E. coli; label from the status in PepcDB or PDB records

Soluble on expression in E. coli, not soluble:
SAMLSSTMKIEALLTEKHINLNLGSSSKDEVIDTLIAMVADHDKVRDLKQLAEDVRKREREMSTGIGKNIGLPHAKTSAVTEPVLALATLSNEVDFESIDNQPVKIVFLLATPETMLAEHLKLLGRITRLAGRDDVRRKLIDAATPADVLELFKQEERDLPQI
MGSDKIHHHHHHMGARLKHYGWGREGEGMNEAEQAFVLGRYKAKFGRDSFDTVEVAHLDDIKLREPRIVPPKSLSEICAVDVYHRAAHAYGKSYPDYVRGMLGDYDAAPDVVAYPRDEAEIAAVMDWAGGAGAALTPFGGGSSVCGGVECRVDGNRHKAAVTLDLRHLGKVLEVDATSRAALIQGGAYGPALEAQLKPHNVTLRHFPQSFEYSTLGGWIATRSGGHYASLYTHIDDFVESVRVVTPRGVLETRRLPGSGAGPSPDRMFIGSEGILGVISAAWMRLQSRPRFRAGASVRFPSFFAAARAVRAVAQAGLYPSNCRILDPQEAYNTGAADGSVAIMVLAFESGDHPVEPWMARALECCADHGGIREEAEASSGHLEGAAGLWRNAFIRMPYAREFLTPAGLINDTFETSITWERFESFHDSVKTVTEQAILDATGIKGEVTCRFTHVYPDGPAPYFSFHALGRHGELLEQWQAIKDAASDALIAAGGTITHHHAVGRDHRKWYDRQRPDLFAVALRAAKRELDPQAMLNPGVLIDP
MAQPPDGRLTYMTQHQRVMEWLNSIDRPNGIHFLDMDAKSLLVLMNTLDRKTRSNLEKSCKILLSISRSDKPHLQQLCLHFTTTWNHDQFAEITAQFSPEHSFHSIFMSKKKSPNWITGGWSIDRQKNITSGIFQPEKLRLSATFVERTSRYIEYWLRNFQIDTLRIKVENLIPGKENSIQQSNYTGEIPPLKLKKLIIHGANNIRFINNWLDNLVPNAIDPLDDKKKIIDVEFLDVGKLDQIFHHSLMTTGKVNLTFNRVSTHFTRKTLNFVNSPMINIVARQVPSEAVNSFLKRWCRGEIIEDFQYLHLMETTQWPSQQMHMMDALSGLRYQIVDLKTDVKLRILEKQKEFPKPAQIFQITGPRPGFCAHFGNQFIFEIPKTEDIQHILVNPPISQNTFDEYERQKNRIYMELFRKRLIRLFN
MRVVAEDLWFPEGPVWVGDGSLLVVEIRRKTLTRIFPDGRKHIVAELGGGPNGAAMGPDGYCYVANNGGFAFRQREDGRWVTSGTPEDYRTGRIERVDIETGKVEVLYDRIDGRNIRGPNDLVIDAAGGIWFTDPGKTRHRDWDRGSICYATIDGSHIEEKVFPIHKPNGIGLSPDGRTLYVAETETARLWAWDLAGPGRLAAPAAASPASPHGSRLAYASPVYQRFDSLAVQADGAVAIGTLDRGGITTVRPDGSASFVPVAGDTHITNLCFGGEGMRKAYVTQSYAGRLVEIDWASPGLRLFEILEHHHHHH
MYKGYLIDLDGTMYRGEEQIEEASDFVKALGERGIPYLFVTNNSTRKPEQVAEKLVRFDIPAKAEQVFTTSMATANFIYERKQDATVYMIGEEGLHDALVEKGFELVDENPDFVVVGLDRDITYEKLAKACLAVRNGATFISTNGDIAIPTERGLLPGNGSLTSVVAVSTGVDPIFIGKPESIIMEQALKVLGIEKNEALMVGDNYDTDILAGINAGMHTLLVHTGVTTVEKLTEYEVQPTQVVHNLTEWIEKM
MGSDKIHHHHHHMDVRRPIREAVNNRRKPKFLSVSFNQDDSCFSVALENGFRIFNTDPLTSKLSKTFKESATNQSRGTGIGYTRMLYRTNYIALVGGGKRPRHALNKLIIWDDLLQKETITLKFMSSIKDVFLSRIHIVVVLENTIEIFQFQTNPQRICPILDIPPNGSVDYVVCSSKHLQSQASQSQSKILEIIAFPSNKCVGQIQVADLSQIKYNSQNPKESALLPTSIIKAHKNPIKLVRLNRQGTMVATCSVQGTLIRIFSTHNGTLIKEFRRGVDKADIYEMSFSPNGSKLAVLSNKQTLHIFQIFETTNTETNTPDHSRANGSSHPLKNYIPKGLWRPKYLDSVWSICNAHLKNPIFDAHRNDNSGDVTHDNEFYKDRCRIGWCQDSNNREQDDSLVLVWQNSGIWEKFVILEKEQQDSSKTHYSLNESLRNEDTKSAGEPTRWELVRESWREL
MDFTQQLQACVTQANQALSRFIAPLPFQNTPVVEAMQYGALLGGKRLRPFLVYATGQMFGVSTATLDAPAAAVECIHAYSLIHDDLPAMDDDDLRRGLPTCHIKFGEANAILAGDALQTLAFAIISDAPMPEVADRDRIAMIAELANASGIAGMCGGQALDLAAEGQRITLDALERIHRHKTGALIRAAVRLGALSAGDKGRNTLPILDRYAESIGLAFQVQDDILDVVGDTATLGKRQGADQQLGKSTYPALLGLEQARNKARDLIEDARQSLHQLAAQSLDTSALEALANYIIQRDK
MNKRVQAFLAKMQEKELDGIIINNLKNVYYLTGFWGSNGTVFISRDRQVLVTDSRYIIAAKQETSGFEIVADRDELAVIAGIVKDMGLTRIGFEDEISVSYYHRMQAAFAGLNLLPQTQFVEGLRMIK
MAAAAARSTSPFEIRHAVTIAAPPEAVFDYVTNPKSWPEWLPSSHALECDDRPMGFGDTFHEHWSTRSGPVDLDWLVIACDRPLLWIGLTQTSFMGPVVVHYTFEAVDDGTRFTRILRNPARPKPPTAEMIERMSTEAELGLGNIKRIVERR

Soluble on expression in E. coli, soluble:
GSFTFSPGQDIQLIPPLINLLMSIEPDVIYAGHDNTKPDTSSSLLTSLNQLGERQLLSVVKWSKSLPGFRNLHIDDQITLIQYSWMSLMVFGLGWRSYKHVSGQMLYFAPDLILNEQRMKESSFYSLCLTMWQIPQEFVKLQVSQEEFLCMKVLLLLNTIPLEGLRSQTQFEEMRSSYIRELIKAIGLRQKGVVSSSQRFYQLTKLLDNLHDLVKQLHLYCLNTFIQSRALSVEFPEMMSEVIAAQLPKILAGMVKPLLFHKK
MSLTGVLGFYTLEEGPTLPSSFTSFANNTGQLSSTALFMFRISAANPTTIEKFGEFTDQDVRNLVAIAHRNNVKIMPVVHNLLYRPGGTTLAKNVVKTLVSDPRNRNAFALNLVNLIERYGFDGVNIDIEDVFIEDSDNLSLLYTEISEVLRPRGYFFSASVPSRVSDEPFNPFSDPFNYSVIGRAVDEFVVMLYNEFGWPGSPPGPAVTIGWMERVLRYTMSKMPRDKIMAAVSVFGFDFNLTTGRNTYVTYQSAINLARRYNSEIIFNEERQTPMFTYRDAQGNQHEVWFEDARSLRSKIQLAWELGIKGVALWRLGMEDPNIWPMLRNEVVVRKFEGHHHHHH
MKLIWSPETASKAYIDTVKSCENLGTPGAAELVAAMAAGWNANLIVETWSEGETIAISVGLNIASRHTNGRHICIVPNARSQTAYLQAMAEQSCSNLPETIIMNEEGEELEHTMQTLQGIDFLVVDWDQKDFAANVLRNAVFGSRGAVVVCRSGYRRSTSCFSWTKAFSDRNVVRTVTLPVSGGLEIAHVAAARSSGKSDNNSNKRKWIKHFDQRSGEEHVIRK
MSLTKRWFNVGKIVNTHGIKGEVRVISKTDFAEERYKPGNTLYLFMDGRNEPVEVTVNTHRLHKQFHLLQFKEGQNLNEVEELKNAIIKVPEEELGELNEGEFYFHEIIGCEVFTEEGELIGKVKEILTPGANDVWVIGRKGKKDALIPYIESVVKHIDVREKKIEIELMEGLIDEEGGSHHHHHH
MSLRALFDALTPKQARIAAILKREGGLQLTITCREYYHLRDMLEQYKVDYICIGRYGETTEEKLVEGLKRQLQMVEIMRGLDGVVSFPSPDAVRTAFGLGKKSVVLNDTPHAYHANSLTIPLSDALIAPSAIPQDAWRRYCPKKVMTFDGVFEYMWTSRHTPNLESVRKLGLEPGSYVVFRPEEAKAAYYQWNNVQLRAKLVELVKEMGYVVVNIPRYPDQVIEGAINLIKAVDHLDLAYYAAAVITGGLTMSTEAALLGTPAVSYFPGDVYIDRYLERAGAPLLRCSSMDECIHVVKKALSMGRAPPPKMEDPLKAIVAAVQEIFGGEGHHHHHH
